Assay results published in patent publication US20210261606A1 (JSR, published 2021).

B1: mutant VHH antibody 2bS13-97H (VHH)
VHH: QVQLVESGGGLVQAGGSLRLSCAASGISFAINNVAWYRQAPGKQRDLVALIDKYDTGNIADSVKGRFSISRDNAKNTAYLQMNSLKPEDTAVYYCNHLGTWIRAGPYWGQGTQVTVSS
B2: mutant VHH antibody 2bS13-100H (VHH)
VHH: QVQLVESGGGLVQAGGSLRLSCAASGISFAINNVAWYRQAPGKQRDLVALIDKYDTGNIADSVKGRFSISRDNAKNTAYLQMNSLKPEDTAVYYCNALGHWIRAGPYWGQGTQVTVSS
notes: also called 2bS13-100H/PB (as ligand on the carrier)
B3: mutant VHH antibody 2bS13-102H (VHH)
VHH: QVQLVESGGGLVQAGGSLRLSCAASGISFAINNVAWYRQAPGKQRDLVALIDKYDTGNIADSVKGRFSISRDNAKNTAYLQMNSLKPEDTAVYYCNALGTWHRAGPYWGQGTQVTVSS
notes: also called 2b513-102H

target: T1, trastuzumab Fab; test: Biacore SPR, trastuzumab Fab immobilized, VHH as analyte, pH 7.4
T1 construct: Made by papain digestion of trastuzumab (Herceptin); also called Fab of trastuzumab (Herceptin)
Description: Those VHH antibodies were dispersed in HBS-EP (10 mM Hepes, 150 mM NaCl, 3 mM EDTA, and 0.005% Tween-20) to produce 12.5 to 150 nM VHH antibody solutions. The trastuzumab Fab prepared in Test Example 1 was immobilized on a Biacore sensor chip, and each VHH antibody solution was applied thereto. The measurements were performed under neutral conditions (pH 7.4). Curve fitting utilizing binding model was applied to association and dissociation behaviors, whereby evaluating the association rate constant (Kon), the dissociation rate constant (Koff), and the affinity (KD). Furthermore, this sensor chip was washed with an acidic eluent (10 mM Glycine-HCl+0.5M NaCl, pH 2.0) to measure a signal. From the obtained signal shape, the elution behavior of Ig by the acid was examined.

Binder | Kd | koff | kon
B1 | 0.205 nM | 0.004 s⁻¹ | 1.97e+07 M⁻¹ s⁻¹
B2 | 0.376 nM | 0.0078 s⁻¹ | 2.08e+07 M⁻¹ s⁻¹
B3 | 1.44 nM | 0.0227 s⁻¹ | 1.58e+07 M⁻¹ s⁻¹
